Assay: soluble on expression in E. coli; label from the status in PepcDB or PDB records

Sequence | soluble on expression in E. coli
MAHHHHHHMGTLEAQTQGPGSMRRVVVTGMGIVSSIGSNTEEVTASLREAKSGISRAEEYAELGFRCQVHGAPDIDIESLVDRRAMRFHGRGTAWNHIAMDQAIADAGLTEEEVSNERTGIIMGSGGPSTRTIVDSADITREKGPKRVGPFAVPKAMSSTASATLATFFKIKGINYSISSACATSNHCIGNAYEMIQYGKQDRMFAGGCEDLDWTLSVLFDAMGAMSSKYNDTPSTASRAYDKNRDGFVIAGGAGVLVLEDLETALARGAKIYGEIVGYGATSDGYDMVAPSGEGAIRCMKMALSTVTSKIDYINPHATSTPAGDAPEIEAIRQIFGAGDVCPPIAATKSLTGHSLGATGVQEAIYSLLMMQNNFICESAHIEELDPAFADMPIVRKRIDNVQLNTVLSNSFGFGGTNATLVFQRYQG | soluble
GGGQCYFIPNQSLKPNECQDLKGVSHPLNSVWKTKDCEECTCGQDAISCCNTAAIPTGYDTNKCQKILNKKTCTYTVVEKKDPGKTCDVTGWVL | soluble
MVLKSKGSVLDLEHDNQTLKDYISVFERNKMRLTQSRLMLLQCLVQHRDWHTLAELKHHLEQNQQRTTLASIYNNLKIFAKLKLINIFVDTNRFETYYCLRHENHKHIYFFDENQRKFLTLPLQDKEALSLIGHKSKHGKIKLNDFYIVASGTLEDDQ | soluble
MAHHHHHHMSENLDRYDAYRLFCISAAAVNGDEDELQDRLGIVEEYLTEYEGLCRAFHKAQRTTHAQEIRRLLADEAEERRFLKEDADSLPWKLFINMSFACAQELVVEHERKMRQGIVAAYTASFTELLFPYETLQRMRLTWEALDSLALKACIVGRYGVREGQLARTSIPGYTAGSTFPPSARAAAAADAVRSLLAEEHQERQEMIEARGQHVAAALLILASSEKFRSFASASVCGMGFLPQLRNNLASTARQALDNSATRIQSAYRGYRVRAVRARS | not soluble
GMPEIHQSIAQHYHERTKYDPETIASKSQRLDWAKQPVPFKEYKIGSAIDLKPYLQETPEVFVNDTNGQWWQRLSRLLFRSYGLTARMPSMGNTVYLRAAPSAGGLYPAEVYVVSRGTPLLSPGLYNYQCRTHSLIHYWESDVWQSLQEACFWHPALESTQLAIIVTAVFYRSAWRYEDRAYRRICLDTGHLLGNIELSAAITDYRPHLIGGFIDEAVNDLLYIDPLQEGAIAVLPLADLLDIQQNISPGCTALPSATETNYPQVPDGELLKYFHHHTQISASITGKLNLPTVIQEKSLEDKYNFPFCLKISTVSAPIYWGENLSDLEITMHKRRSTRAYNGEELTFDELKALLDFTYQPQNYIDQSLDNSPDYFDLNLIETFIAVCGVQGLEAGCYYYAPKAQELRQIRFKNFRRELHFLCLGQELGRDAAAVIFHTSDLKSAIAQYGDRVYRYLHMDAGHLGQRLNLAAIQLNLGVSGIGGFFDDQVNEVLGIPNDEAVIYITTLGRPR | soluble
MSLNLAKRILQGEQLTKETVLKIYEDTNIDTLDLLNEAYILRKHYFGKKVKLNMILNAKSGICPENCGYCGQSRDIKQKQRYALIPEEQIIDGAKVAHDNHIGTYCIVMSGRGPSDKEVDHISNTVRTIKSQHPQLKICACLGLTNDEQAKKLKSAGVDRYNHNINTSENYHDNVVTTHSYKDRTDTIELMKANNISPCSGVICGMGESNQDIVDMAFALKEMDADSIPINFLHPIKGTKFGSMDDLTPMKCLRIVALFRLINPTKEIRIAGGREVNLRSLQPLALKAANSIFVGDYLITGGQPNQLDYDMINDLGFEIDYDTCENKENKNDVSRANEGHHHHHH | soluble
MSLVTLGEGFEKARLTRFLEKFGGNEGSQFLYLKDYGHFYYQEEGEDQVLFGFQMKFNKCFVLADPIGQREKWTAATLAFMDQADLLGYQLVFYRISEEYVMNLHDCGFEFMKVGEEGLIQFDEPSTVNQTAWTETVTEKIAAEAADFQFEFYPETISDALYQELERVSADWSRNQKERYFIGGRLDPEYLKCSSVGLVRQKQTVIGFITGKEMEKGKSISYDLLRIRSDAPAFTREYLFTHFIETYQQQGYQLIDIGMAPLANVGESKYSFLKERFVNIFYKYSYQIYAFQDTRKRKEQYVTSWQPRYFAYPKRTSVLFAFVQLSLLITKGRHQSVSLVEEAMTEIEGHHHHHH | soluble
GMELQDTIFKRQSVRKFKNQDVSDEDILKMIKAAGAAPSGKNIQNWHFVVIKRRDLMEKIADVITKKQQEILVEMDKVSVDKANRFRKFVKNFTLFYLKAPVLVLVFTKVYNPSGYYELELIDAPKETIDKLFIRNPGMQSLGAAIENFTLSAIELGYGSCWLTSQNYAADEIEAVLEAETGFEKGEYFLGAMLALGVPEDNLKSPSKKPVEEICTFIK | soluble
GHMAGNPPDPNAASTGTNPSPQAAGDISPEMMPETANIKLGYIPIVEAAPLIIAQEKGFFAKYGMTGVEVSKQANWASARDNVTIGSQGGGIDGGQWQMPMPHLITEGIITNGNKVPMYVLAQLITQGNGIAVAPMHEGKGVNLDITKAADYIKGFNKTNGRKFKAAHTFPNVNQDFWIRYWFAAGGVDPDTDIDLLAVPPAETVQGMRNGTMDAFSTGDPWPYRIVTENIGYMAGLTAQIWPYHPEEYLAIRADWVDKNPKATKALLKGIMEAQQWIDDPKNRPEVVQIVSGRNYFNVPTTILESPFKGQYTMGDGQPAIDDFQKGPLYWKDGIGNVSYPYKSHDLWFLTESIRWGFHKNAIPDLDTAQKIIDKVNREDLWREAATEAGFTADIPSSTSRGVETFFDGITFDPANPSAYLQSLAIKKV | soluble
NANDNVVIVGTGLAGVEVAFGLRASGWEGNIRLVGDATVIPHHLPPLSKAYLAGKATAESLYLRTPDAYAAQNIQLLGGTQVTAINRDRQQVILSDGRALDYDRLVLATGGRPRPLPVASGAVGKANNFRYLRTLEDAECIRRQLIADNRLVVIGGGYIGLEVAATAIKANMHVTLLDTAARVLERVTAPPVSAFYEHLHREAGVDIRTGTQVCGFEMSTDQQKVTAVLCEDGTRLPADLVIAGIGLIPNCELASAAGLQVDNGIVINEHMQTSDPLIMAVGDCARFHSQLYDRWVRIESVPNALEQARKIAAILCGKVPRDEAAPWFWSDQYEIGLKMVGLSEGYDRIIVRGSLAQPDFSVFYLQGDRVLAVDTVNRPVEFNQSKQIITDRLPVEPNLLGDESVPLKEIIAAAKAELSSAKAELSSAPRHHHHHH | soluble
MCMSWSKVKYFFFDTPEEKEAAQYSYEKEQTDMKKQQDPPEQQDVTFPKAQPKQNVVSIETAKQSSKVVLLEPRTYSEAQGIADHLKGRRAVVINLQRMSTDQAVRIVDFLSGTVYAIGGDIQKIGPKTFMTPENVDIVGAISELFGEEEDTNIKRWLEHHHHHH | soluble
MGSDKIHHHHHHMKFTPELESGVLIKRYKRFLADIMLPNGQEITIHCPNTGSMKNCLFPGEKVWFSTSDNPKRKYAHTWELMQTDQQHYIGINTGRANALAEEAINRQVITELLGYEHLKREVKYGSENSRIDILLTSQNRPECYIEVKSCTLLEDQMGYFPDAVTTRGQKHLRELIHMVELGHRAVLLFVVQHSAITSVKPARHIDPHYADLLEQAVANGVEVLAYKTALSPQGSLITSACKVML | not soluble
SLDIRALGYFVAQTDAPQEWQHYAEQVLGMMTAPTDDGGFYIKMDERPYRMLVIPGADKRYFASGWELTGAKAYNNAKQTLLDKGIAFEEANKALCEQRRVQNILIVNDPAGNRHELYWGHVSDCQPFTSPQGVPAFITGDMGLGHTVLPAPNFDETFAFLTDVLGFELSDLFNFKPAPEADPIRIYFMHCGNARHHSLAICEFPVPSGCVHAMVEVENMTEVGRAHDRQQQHQVQLSATLGQHLNDKMTSFYMKTPSGFDLEYGFGGLQVENWEEHCAFEFSRVSLWGHDFSVGEKEG | not soluble
SGLVPGRHMMITMDDIIREGNPTLREVAKEVSLPLSEEDISLGKEMLEFLKNSQDPIKAEELHLRGGVGLAAPQLDISKRIIAVHVPSPDPEADGPSLSTVMYNPKILSHSVQDACLGEGEGCLSVDREVPGYVVRHAKITVSYYDMNGEKHKIRLKNYESIVVQHEIDHINGVMFYDHINDQNPFALKEGVLVIE | soluble
MIYLRKLKKEDLMSLWEMAYSQLNPVWKQYDAPYYDDYQYFSNFKEFELQKSESILSNSNRLGIFVDDKLVGTVSRYWVCKETRWMELGIGIYDKKFWNTGIGKVAMLQWIDRTFQDYLELEHLGLTTWSGNIGMMKLAEKLRMKKEAHIPKVRYYQGKYFDSIKYGILREDWEKINDGYYQINGNS | not soluble
MGFDESSQMIDPDGELSFFKQNENRTPVTSVPSTSKAVLPFNFDDDEDDEYFKTPKIAEKKKKLPEAMAPVSEDSFDFDIAVPQSIINRIPAKTTAQPAKKYPKIPNLSAKTSSKPTEAPKTENVLKIKSKSQEIAQKPQKSTRISSFFSRTTSSTSNLTEYKRGKSAKMKHISKMEQFFVEHERDIICVGECGLDHTISQFKLTTEDFEEQETVFKWQIDLAKHFEKPLILEIPDISRNVHSRSAARRTIEILLECHVAPDQVVLHAFDGTPGDLKLGLEAGYLFSIPPSFGKSEETTQLIESIPLSQLLLETDSPALGPEKGCKNVPANLRISAEIVAKIKKLEIDDIISATSTNANRIFKF | soluble
MGSDKIHHHHHHMALEVVLWDFDGVIFDSMHLKNEGFRALFQKHGNKNQESLKQFEVYHYQSGGISRNEKIQYFYNEILKTPIAQEEVDALALEFGTIIEQKLFDREHLNSEVMAFIDKHYKNHVFHIASAALHSELQVLCEFLGIIKYFKSVEGSPPNKPKIIANIIQKYAYNPGRMLMIGDSVNDYESAQANEVAFLGYNSKVLKNLVGQNGYQGKYLESFKGFDLQNFIKE | not soluble
MAFTPFPPRQPTASARLPLTLMTLDDWALATITGADSEKYMQGQVTADVSQMAEDQHLLAAHCDAKGKMWSNLRLFRDGDGFAWIERRSVREPQLTELKKYAVFSKVTIAPDDERVLLGVAGFQARAALANLFSELPSKEKQVVKEGATTLLWFEHPAERFLIVTDEATANMLTDKLRGEAELNNSQQWLALNIEAGFPVIDAANSGQFIPQATNLQALGGISFKKGCYTGQEMVARAKFRGANKRALWLLAGSASRLPEAGEDLELKMGENWRRTGTVLAAVKLEDGQVVVQVVMNNDMEPDSIFRVRDDANTLHIEPLPYSLEELEHHHHHH | not soluble
AQGRQPRTETLHAERRAAGAWLAKRMGLEDSAPVYFLQRRRWVDERPVLIELIALDAGWCPGLLDHDLDTSLMSLLRERFGLQPTRCQLAMHPTALNAAQAEPLQLAPGSPALYLERLSYAEGQRVVEFDQEFWRPDALEIVLDAAYPGA | soluble
MKKTFNLVATAAAGIEAVVGKELRNLGLDCQVENGRVLFKGNIETIAKSNLWLRSADRIKIVVGEFPARTFEELFQGVYALDWENYLPLGCQFPVAKAKSVKSKLHNEPSIQGITKKAIVKKLQHYFHRPDSVPLPENGPEFKIEISLLKDQARVMIDTTGPSLFKRGYRTEKGGAPIKENMAAAIILLSNWFPDKPFVDPTCGSGTFCIEAAMIGMNIAPGFNRDFAFEEWPWVDEALVTRVRNEADEQADYDIQLDISGFDFDGRMVEIARKNAREVGLEDVVKLKQMRLQDFKTNKINGVLISNPPYGERLLDDKAVDILYNEMGETFAPLKTWSQFILTNDTDFEQKFGRKADKKRKLYNGSLKVDLYQFYGQRVKRVLR | soluble
